From patent US20250171542A1

Molecular target: human PD-L1 expressed on cell surface (human) (UniProt Q9NZQ7)
Experiment: cell-based or functional assay

human PD-L1 expressed on cell surface (human), sequence (Q9NZQ7 19-290 limits assumed): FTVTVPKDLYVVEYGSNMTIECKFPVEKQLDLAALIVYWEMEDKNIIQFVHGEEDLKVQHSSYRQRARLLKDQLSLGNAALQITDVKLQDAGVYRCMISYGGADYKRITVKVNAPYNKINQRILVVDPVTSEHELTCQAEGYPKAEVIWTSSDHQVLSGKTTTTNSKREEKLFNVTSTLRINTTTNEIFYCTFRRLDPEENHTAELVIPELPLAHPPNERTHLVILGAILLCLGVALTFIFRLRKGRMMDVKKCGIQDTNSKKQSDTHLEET

Row | Substance | IC50 (nM), Promega PD-1/PD-L1 blockade reporter assay, another assay [nM]
1 | Atezolizumab analogue (BioIntron) (antibody) | 0.33
2 | SGN-PD-L1 analogue anti-PD-L1 antibody (BioIntron) | 0.68
